Measured values from the RNAGym collection of RNA variant scans (doi:10.7554/elife.80360).

B1: Hairpin Ribozyme (parent)
chain: GUCCUCUUUCACGUGCGCGUGAAAGAGAGAAGUGAACCAGAGAAACACACGUUGUGGUAUAUUACCUGGUA

Variants of: B1
Test: self-cleavage, relative activity (ratio to wild type); higher = more cleavage; co-transcriptional

Compared with C12G U70A, C50A G68A is lower in self-cleavage: 0.728 for the first, 0.143 for the second.

First: C10U G54U
Second: U8G U9G
The self-cleavage of the first is lower: 0.452 for the first, 0.82 for the second.

Going from A30C G57U to C3U U14A, the self-cleavage rises from 0.266 to 0.495.

First: G54A U67G
Second: C18U G27C
The self-cleavage of the first is lower: 0.157 for the first, 0.228 for the second.

Compared with C37A C65G, A11U U62A is higher in self-cleavage: 0.124 for the first, 0.148 for the second.

Compared with C6A A11U, G29U U62C is lower in self-cleavage: 0.399 for the first, 0.0779 for the second.

Compared with A28C C38U, A11U A23U is higher in self-cleavage: 0.218 for the first, 0.728 for the second.

Going from A47C G69A to C50U A61G, the self-cleavage rises from 0.151 to 0.199.

First: C12A G51U
Second: C38U U53A
The self-cleavage of the first is higher: 0.933 for the first, 0.731 for the second.

Compared with U8A U70C, G17C U33C is lower in self-cleavage: 0.816 for the first, 0.237 for the second.

Going from A26G A35G to U20G A47U, the self-cleavage falls from 0.763 to 0.0722.

Going from A23G G51U to C3A G32U, the self-cleavage falls from 1.01 to 0.0959.

Compared with G15A A28G, G29A U62G is lower in self-cleavage: 0.978 for the first, 0.21 for the second.

First: C18G C66U
Second: A36G A61G
The self-cleavage of the first is higher: 0.479 for the first, 0.154 for the second.

Going from A22G G56U to A41G G54A, the self-cleavage rises from 0.0693 to 0.481.

First: G32C A36G
Second: G25C U52A
The self-cleavage of the first is lower: 0.0754 for the first, 0.594 for the second.

First: C4G U60G
Second: G21C A45G
The self-cleavage of the first is lower: 0.147 for the first, 0.192 for the second.

First: U55G U58C
Second: G57U A64G
The self-cleavage of the first is higher: 0.651 for the first, 0.202 for the second.

Going from C10G U55G to G56C A59G, the self-cleavage rises from 0.195 to 0.205.

First: A26C G34A
Second: G1U A45C
The self-cleavage of the first is higher: 0.906 for the first, 0.126 for the second.

Compared with C37G A47U, U2A C6A is higher in self-cleavage: 0.113 for the first, 0.238 for the second.

First: C50U U70C
Second: A23U A59C
The self-cleavage of the first is higher: 0.34 for the first, 0.0742 for the second.

First: U8G A31C
Second: A41C G56C
The self-cleavage of the first is lower: 0.13 for the first, 0.237 for the second.

Going from C18G A64G to G17A U20G, the self-cleavage rises from 0.463 to 0.492.

Going from G21U A44C to G34C A45G, the self-cleavage rises from 0.117 to 0.368.

Compared with G15C A36C, G27C A49G is lower in self-cleavage: 0.678 for the first, 0.075 for the second.

First: U20G A45G
Second: A35C C50U
The self-cleavage of the first is lower: 0.128 for the first, 0.438 for the second.

Compared with A31C G57U, U5C G56A is higher in self-cleavage: 0.0476 for the first, 0.107 for the second.

Compared with G19C U63C, G19C A59C is higher in self-cleavage: 0.168 for the first, 0.225 for the second.

Compared with C6G G42U, A44C A64G is higher in self-cleavage: 0.113 for the first, 0.141 for the second.

Compared with G25C G57C, A30U A41G is lower in self-cleavage: 0.12 for the first, 0.106 for the second.

First: A11C A44G
Second: C12G G69A
The self-cleavage of the first is lower: 0.197 for the first, 0.284 for the second.

First: U53A G56C
Second: G13A G34C
The self-cleavage of the first is lower: 0.208 for the first, 1.33 for the second.

First: A35C G68U
Second: C3G A28G
The self-cleavage of the first is lower: 0.226 for the first, 0.362 for the second.

Compared with G42C U67A, C12A C16G is higher in self-cleavage: 0.0793 for the first, 0.671 for the second.

Compared with G15C A31C, U7A U8G is higher in self-cleavage: 0.206 for the first, 0.925 for the second.

Compared with A31G C65U, C16U A36C is higher in self-cleavage: 0.252 for the first, 0.789 for the second.

First: G1C G15U
Second: A24C A28U
The self-cleavage of the first is lower: 0.24 for the first, 0.592 for the second.

Compared with U2C A45U, A47G C50A is higher in self-cleavage: 0.0729 for the first, 0.172 for the second.

Going from A28U G57C to G42U G57A, the self-cleavage rises from 0.113 to 0.187.

Going from G1U A31C to C66G U70A, the self-cleavage rises from 0.0695 to 0.273.

Compared with A31U A49C, A11G A45C is lower in self-cleavage: 0.139 for the first, 0.124 for the second.

Compared with A41U G42C, U9C C38A is lower in self-cleavage: 0.464 for the first, 0.225 for the second.

Compared with A30U U67G, G1U A28C is lower in self-cleavage: 0.176 for the first, 0.0863 for the second.

Going from A28U G29A to C12G G13A, the self-cleavage rises from 0.0881 to 0.851.

First: C4G G68C
Second: G13A U20C
The self-cleavage of the first is lower: 0.134 for the first, 0.902 for the second.

First: A49G A61C
Second: G21C C37U
The self-cleavage of the first is lower: 0.0946 for the first, 0.583 for the second.

Compared with G21U C50G, C3A C37G is lower in self-cleavage: 0.328 for the first, 0.32 for the second.

First: G34A U58A
Second: G25A A71U
The self-cleavage of the first is higher: 1.09 for the first, 0.553 for the second.

Going from G13A A22C to C16G A31U, the self-cleavage falls from 0.607 to 0.226.

First: G21C G69C
Second: G13C A64G
The self-cleavage of the first is lower: 0.265 for the first, 0.448 for the second.

First: G1A U60C
Second: A23C A26C
The self-cleavage of the first is lower: 0.248 for the first, 0.507 for the second.

Compared with U7A A30C, A30C A47U is lower in self-cleavage: 0.121 for the first, 0.105 for the second.

First: A22G G27A
Second: G51U G57A
The self-cleavage of the first is higher: 0.522 for the first, 0.122 for the second.

Compared with U9A G29A, A28U G68U is higher in self-cleavage: 0.0709 for the first, 0.272 for the second.

First: A31G C38U
Second: G27U A47C
The self-cleavage of the first is higher: 0.272 for the first, 0.157 for the second.

First: U7G A36C
Second: G1C G15C
The self-cleavage of the first is higher: 0.669 for the first, 0.117 for the second.

First: A23C G69C
Second: U9C G40C
The self-cleavage of the first is higher: 0.244 for the first, 0.136 for the second.

First: G56U U67G
Second: A41G U60G
The self-cleavage of the first is lower: 0.12 for the first, 0.367 for the second.

First: U14A G57U
Second: U53A A64G
The self-cleavage of the first is lower: 0.195 for the first, 0.696 for the second.

Going from U52G U63C to C12A, the self-cleavage rises from 0.0944 to 0.805.

Going from G29C C50G to G32C U67C, the self-cleavage rises from 0.0763 to 0.105.

Compared with C4G U67C, G1A A28G is higher in self-cleavage: 0.0875 for the first, 0.196 for the second.

Compared with C38A A71C, U8A G40A is higher in self-cleavage: 0.228 for the first, 0.235 for the second.

Compared with G19A G40U, G56C A59C is lower in self-cleavage: 0.179 for the first, 0.154 for the second.

Going from U9G A26G to G21C G27C, the self-cleavage falls from 0.386 to 0.134.

Compared with C6G U7A, C48G A64C is lower in self-cleavage: 0.337 for the first, 0.242 for the second.

Going from A44U A59G to C12A G57A, the self-cleavage rises from 0.253 to 0.255.

First: G17C C65A
Second: U2G G42A
The self-cleavage of the first is higher: 0.748 for the first, 0.0588 for the second.

First: G15U C16A
Second: A35C U55G
The self-cleavage of the first is higher: 1.11 for the first, 0.27 for the second.

Compared with A45G G56C, A36G C65G is higher in self-cleavage: 0.0912 for the first, 0.138 for the second.

Compared with U8A A31G, C4U U58A is lower in self-cleavage: 0.448 for the first, 0.172 for the second.

First: A44U C66U
Second: G17U G34A
The self-cleavage of the first is lower: 0.222 for the first, 1.24 for the second.

Compared with U5C U55G, U2C U55C is lower in self-cleavage: 0.351 for the first, 0.0641 for the second.

Compared with G27C A59G, A43C U52G is higher in self-cleavage: 0.0478 for the first, 0.164 for the second.

Going from G13U A71U to C48U U63A, the self-cleavage falls from 0.684 to 0.173.

Compared with A64U U70A, A59G C66U is lower in self-cleavage: 0.257 for the first, 0.0625 for the second.

First: A24G C37G
Second: C37A A49U
The self-cleavage of the first is higher: 0.359 for the first, 0.0951 for the second.

Compared with G34A A64U, G54A A59C is higher in self-cleavage: 0.125 for the first, 0.307 for the second.

First: U7G G25C
Second: C16G A22U
The self-cleavage of the first is lower: 0.253 for the first, 0.691 for the second.

First: G1A A24G
Second: U14A U53G
The self-cleavage of the first is lower: 0.159 for the first, 0.899 for the second.

First: C3A U63C
Second: G19C A64G
The self-cleavage of the first is lower: 0.154 for the first, 0.545 for the second.

First: A24U A43G
Second: A30C U63C
The self-cleavage of the first is higher: 0.159 for the first, 0.0293 for the second.

Work on U7G G40C yielded a self-cleavage of 0.207.
